# Measurements as given in the supplement of paper PMC10567573.
# B1: MATN2 (parent)
# chain: VNVPGSFVCQCYSGYALAEDGKRC
# Variants of: B1
# Test: protein stability index of a GFP-peptide fusion (GPS, HEK-293T) (PSI 1-6); higher = more stable
# Conditions: c terminus: a fixed tail appended
# 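Note: lentivirally expressed fusions sorted by FACS into six bins by GFP to DsRed ratio, PSI derived from sequencing read proportions per bin multiplied by bin number.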
row,Variant,protein stability index
1,VNVPGSFVCQCYSTYALAEDGKRC,1.69
2,VNVPGSFVCQCYSKYALAEDGKRC,2.7
3,VNVPGSFVCQCYSDYALAEDGKRC,1.95
4,VNVPGSFVCQCYSSYALAEDGKRC,2.44
5,VNVPGSFVCQCYSHYALAEDGKRC,2.37
6,VNVPGSFVCQCYSEYALAEDGKRC,2.91
7,VNVPGSFVCQCYSQYALAEDGKRC,1.83
8,VNVPGSFVCQCYSPYALAEDGKRC,1.78
9,VNVPGSFVCQCYSFYALAEDGKRC,2.6
10,VNVPGSFVCQCYSMYALAEDGKRC,2.52
11,VTVPGSFVCQCYSGYALAEDGKRC,2.35
12,VKVPGSFVCQCYSGYALAEDGKRC,1.38
13,VFVPGSFVCQCYSGYALAEDGKRC,2.64
14,VDVPGSFVCQCYSGYALAEDGKRC,2.19
15,NNVPGSFVCQCYSGYALAEDGKRC,2.06
16,PNVPGSFVCQCYSGYALAEDGKRC,2.86
17,SNVPGSFVCQCYSGYALAEDGKRC,3.31
18,MNVPGSFVCQCYSGYALAEDGKRC,1.87
19,LNVPGSFVCQCYSGYALAEDGKRC,2.17
20,KNVPGSFVCQCYSGYALAEDGKRC,1.92
21,ENVPGSFVCQCYSGYALAEDGKRC,2.59
22,INVPGSFVCQCYSGYALAEDGKRC,2.43
23,FNVPGSFVCQCYSGYALAEDGKRC,3.08
24,VNVPGSFVCQCYSGYNLAEDGKRC,1.45

row,Variant,protein stability index
1,VNVPGSFVCQCYSGYDLAEDGKRC,2.17
2,VNVPGSFVCQCYSGYLLAEDGKRC,1.73
3,VNVPGSFVCQCYSGYPLAEDGKRC,1.49
4,VNVPGSFVCQCYSGYRLAEDGKRC,1.52
5,VNVPGSFVCQCYSGYTLAEDGKRC,1.93
6,VNVPGSFVCQCYSGYGLAEDGKRC,2.58
7,VNVPGSFVCQCYSGYVLAEDGKRC,1.62
8,VNVPGSFVCQCYSGYILAEDGKRC,2.11
9,VNVPGSFVCQCYSGYALAEDGLRC,1.17
10,VNVPGSFVCQCYSGYALAEDGFRC,1.81
11,VNVPGSFVCQCYSGYALAEDGNRC,3.34
12,VNVPGSFVCQCYSGYALAEDGYRC,1.47
13,VNVPGSFVCQCYSGYALAEDGQRC,1.49
14,VNVPGSFVCQCYSGYALAEDGKMC,2.32
15,VNVPGSFVCQCYSGYALAEDGKKC,2.99
16,VNVPGSFVCQCYSGYALAEDGKYC,1.83
17,VNVPGSFVCQCYSGYALAEDGKNC,2.23
18,VNVPGSFVCQCYSGYALAEDGKTC,2.06
19,VNVPGSFVCQCYSGYALAEDGKPC,2.07
20,VNVPGSFVCQCYSGYALAEDGKGC,2.56
21,VNVPGSFVCQCYSGYALAEDGKRN,2.72
22,VNVPGSFVCQCYSGYALAEDGKRD,2.32
23,VNVPGSFVCQCYSGYALAEDGKRA,1.73
24,VNVPGSFVCQCYSGYALAEDGKRI,2.22

row,Variant,protein stability index
1,VNVPGSFVCQCYSGYALAEDGKRF,1.83
2,VNVPGSFVCQCYSGYALAEDGKRL,1.86
3,VNVPGSFVCQCYSGYALAEDGKRV,3.76
4,VNVPGSFVCQCYSGYALAEDGKRQ,2.12
5,VNVPGVFVCQCYSGYALAEDGKRC,1.84
6,VNVPGNFVCQCYSGYALAEDGKRC,1.43
7,VNVPGRFVCQCYSGYALAEDGKRC,3.39
8,VNVPGQFVCQCYSGYALAEDGKRC,1.81
9,VNVPGFFVCQCYSGYALAEDGKRC,3.53
10,VNVPGWFVCQCYSGYALAEDGKRC,2.04
11,VNVPGEFVCQCYSGYALAEDGKRC,2.67
12,VNVPGKFVCQCYSGYALAEDGKRC,1.89
13,VNVPGHFVCQCYSGYALAEDGKRC,2.27
14,VNVPGYFVCQCYSGYALAEDGKRC,1.87
15,VNVPGSLVCQCYSGYALAEDGKRC,2.07
16,VNVPGSAVCQCYSGYALAEDGKRC,2.85
17,VNVPGSKVCQCYSGYALAEDGKRC,2.98
18,VNVPGSEVCQCYSGYALAEDGKRC,2.94
19,VNVPGSGVCQCYSGYALAEDGKRC,3.34
20,VNVPGSPVCQCYSGYALAEDGKRC,3.13
21,VNVPGSMVCQCYSGYALAEDGKRC,2.7
22,VNVPGSWVCQCYSGYALAEDGKRC,2.48
23,VNVPGSCVCQCYSGYALAEDGKRC,2.28
24,VNVPGSFVCQCYSGYALAYDGKRC,1.7

row,Variant,protein stability index
1,VNVPGSFVCQCYSGYALAGDGKRC,2.83
2,VNVPGSFVCQCYSGYALAWDGKRC,1.86
3,VNVPGSFVCQCYSGYALATDGKRC,1.75
4,VNVPGSFVCQCYSGYALACDGKRC,3.15
5,VNVPGSFVCQCYSGYALAQDGKRC,1.75
6,VNVPGSFVCQCYSGYALAPDGKRC,1.54
7,VNVPGSFVCQCYSGYALAFDGKRC,1.17
8,VNVSGSFVCQCYSGYALAEDGKRC,1.34
9,VNVGGSFVCQCYSGYALAEDGKRC,1.86
10,VNVMGSFVCQCYSGYALAEDGKRC,2.1
11,VNVRGSFVCQCYSGYALAEDGKRC,1.33
12,VNVQGSFVCQCYSGYALAEDGKRC,2.97
13,VNVKGSFVCQCYSGYALAEDGKRC,1.92
14,VNVLGSFVCQCYSGYALAEDGKRC,1.99
15,VNVCGSFVCQCYSGYALAEDGKRC,2.07
16,VNVIGSFVCQCYSGYALAEDGKRC,1.04
17,VNVPGSFVCQCYSGYALQEDGKRC,2.38
18,VNVPGSFVCQCYSGYALCEDGKRC,3.33
19,VNVPGSFVCQCYSGYALYEDGKRC,2.84
20,VNVPGSFVCQCYSGYALIEDGKRC,1.64
21,VNVPGSFVCQCYSGYALTEDGKRC,2
22,VNVPGSFVCQCYSGYALGEDGKRC,1.82
